The results in this text go back to patent US20210054094A1 (Hoffmann-La Roche, published 2021).

To fix the notation:
B1: P1AE5739 (antibody, V domains shown)
VH: EVQLVESGGGVVQPGRSLRLSCAASGFSFSNYGMAWVRQAPGKGLEWVASISTGGGNTYYRDSVKGRFTISRDNAKNTLYLQMNSLRAEDTAVYYCTRHDRGGLYWGQGTMVTVSS
VL: DIVMTQSPLSLPVTPGEPASISCRSSKSLLHSNGITYVYWYLQKPGQSPQVLIYRMSNLASGVPDRFSGSGSGTDFTLKISRVEAEDVGVYHCGQLLENPYTFGQGTKLEIK
B2: P1AE5735 (antibody, V domains shown)
VH: QVQLVESGGGVVQPGRSLRLSCAASGFSFSNYGMAWVRQAPGKGLEWVASISTGGGNTYYRDSVKGRFTISRDNSKNTLYLQMNSLRAEDTAVYYCTRHDRGGLYWGQGTMVTVSS
VL: DIVMTQSPLSLPVTPGEPASISCRSSKSLLHSNGITYVYWYLQKPGKSPQVLIYRMSNLASGVPDRFSGSGSGTDFTLKISRVEAEDVGVYHCGQLLENPYTFGQGTKLEIK
B3: P1AE5744 (antibody, V domains shown)
VH: QVQLVESGGGVVQPGRSLRLSCAASGFSFSNYGMAWVRQAPGKGLEWVASISTGGGNTYYADSVKGRFTISRDNSKNTLYLQMNSLRAEDTAVYYCTRHDRGGLYWGQGTMVTVSS
VL: DIVMTQSPLSLPVTPGEPASISCRSSKSLLHSNGITYVYWYLQKPGQSPQVLIYRMSNLASGVPDRFSGSGSGTDFTLKISRVEAEDVGVYHCGQLLENPYTFGQGTKLEIK
B4: P1AE5740 (antibody, V domains shown)
VH: EVQLVESGGGVVQPGRSLRLSCAASGFSFSNYGMAWVRQAPGKGLEWVASISTGGGNTYYRDSVKGRFTISRDNAKNTLYLQMNSLRAEDTAVYYCTRHDRGGLYWGQGTMVTVSS
VL: DIVMTQSPLSLPVTPGEPASISCRSSKSLLHSNGITYVYWYLQKPGKSPQVLIYRMSNLASGVPDRFSGSGSGTDFTLKISRVEAEDVGVYHCGQLLENPYTFGQGTKLEIK
B5: P1AE5734 (antibody, V domains shown)
VH: QVQLVESGGGVVQPGRSLRLSCAASGFSFSNYGMAWVRQAPGKGLEWVASISTGGGNTYYRDSVKGRFTISRDNSKNTLYLQMNSLRAEDTAVYYCTRHDRGGLYWGQGTMVTVSS
VL: DIVMTQSPLSLPVTPGEPASISCRSSKSLLHSNGITYVYWYLQKPGQSPQVLIYRMSNLASGVPDRFSGSGSGTDFTLKISRVEAEDVGVYHCGQLLENPYTFGQGTKLEIK
B6: P1AE5736 (antibody, V domains shown)
VH: QVQLVESGGGVVQPGRSLRLSCAASGFSFSNYGMAWVRQAPGKGLEWVASISTGGGNTYYRDSVKGRFTISRDNSKNTLYLQMNSLRAEDTAVYYCTRHDRGGLYWGQGTMVTVSS
VL: DIVMTQSPLSLPVTPGEPASISCRSSKSLLHSNGITYVYWYLQKPGQSPQLLIYRMSNRASGVPDRFSGSGSGTDFTLKISRVEAEDVGVYHCGQLLENPYTFGQGTKLEIK
B7: P1AE5745 (antibody, V domains shown)
VH: QVQLVESGGGVVQPGRSLRLSCAASGFSFSNYGMAWVRQAPGKGLEWVASISTGGGNTYYADSVKGRFTISRDNSKNTLYLQMNSLRAEDTAVYYCTRHDRGGLYWGQGTMVTVSS
VL: DIVMTQSPLSLPVTPGEPASISCRSSKSLLHSNGITYVYWYLQKPGKSPQVLIYRMSNLASGVPDRFSGSGSGTDFTLKISRVEAEDVGVYHCGQLLENPYTFGQGTKLEIK
B8: P1AE5741 (antibody, V domains shown)
VH: EVQLVESGGGVVQPGRSLRLSCAASGFSFSNYGMAWVRQAPGKGLEWVASISTGGGNTYYRDSVKGRFTISRDNAKNTLYLQMNSLRAEDTAVYYCTRHDRGGLYWGQGTMVTVSS
VL: DIVMTQSPLSLPVTPGEPASISCRSSKSLLHSNGITYVYWYLQKPGQSPQLLIYRMSNRASGVPDRFSGSGSGTDFTLKISRVEAEDVGVYHCGQLLENPYTFGQGTKLEIK

This assay deals with human GPRC5D (human, UniProt Q9NZD1 1-345). Description: cell-based or functional assay.
Sequence of human GPRC5D (Q9NZD1 whole entry): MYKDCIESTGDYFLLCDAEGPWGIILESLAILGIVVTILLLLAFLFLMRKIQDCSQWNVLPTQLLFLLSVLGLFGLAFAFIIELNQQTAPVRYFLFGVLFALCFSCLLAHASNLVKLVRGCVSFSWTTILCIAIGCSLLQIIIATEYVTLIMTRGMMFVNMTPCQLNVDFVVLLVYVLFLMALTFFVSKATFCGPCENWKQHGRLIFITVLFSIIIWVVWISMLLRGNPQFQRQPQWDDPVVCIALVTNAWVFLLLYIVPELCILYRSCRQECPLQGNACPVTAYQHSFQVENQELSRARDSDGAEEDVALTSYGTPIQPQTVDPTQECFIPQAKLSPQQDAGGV
Take B1: the “CAR-J2 EC50 (PGLALA-CAR-J activation, L363 target cells)” value (from here on “CAR-J2 EC50”) amounted to 23.5 ng/mL.

For the molecule B2, the “CAR-J2 EC50” value came to 82.1 ng/mL.

For B3, the “CAR-J2 EC50” value was determined as 3.63 ng/mL.

As to B4, the “CAR-J2 EC50” value turned out to be 8.96 ng/mL.

Regarding B5, the “CAR-J2 EC50” value came out at 41.5 ng/mL.

Regarding B6, the “CAR-J2 EC50” value turned out to be 1.38 ng/mL.

As to B7, the “CAR-J2 EC50” value was determined as 1.62 ng/mL.

On to B8, for which the “CAR-J2 EC50” value was determined as 1.4 ng/mL.
